Experimental findings from paper PMC9352680, “A comprehensive thermodynamic model for RNA binding by the Saccharomyces cerevisiae Pumilio protein PUF4” are described below.

The target of data set [1] is T1, PUF4 RNA-binding domain (Pumilio homology domain) (Saccharomyces cerevisiae) (UniProt P25339).
T1 sequence: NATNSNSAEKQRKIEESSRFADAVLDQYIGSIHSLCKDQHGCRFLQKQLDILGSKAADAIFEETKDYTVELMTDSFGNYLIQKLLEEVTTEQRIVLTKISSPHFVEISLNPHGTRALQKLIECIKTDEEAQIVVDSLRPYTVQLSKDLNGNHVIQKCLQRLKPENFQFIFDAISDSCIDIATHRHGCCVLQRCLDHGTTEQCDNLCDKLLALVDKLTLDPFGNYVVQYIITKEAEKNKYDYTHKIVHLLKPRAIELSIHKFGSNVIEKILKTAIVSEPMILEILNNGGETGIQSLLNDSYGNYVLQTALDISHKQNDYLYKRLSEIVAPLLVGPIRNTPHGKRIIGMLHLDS
Kind of data set: RNA-MaP. To be noted: RNA-MaP: 20 mM Na-HEPES pH 7.4, 0.1% Tween-20, 5% glycerol, 0.1 mg/mL BSA, 2 mM DTT, low salt 0.75 mM MgCl2 + 30 mM KOAc (model data; high salt 2 mM MgCl2 + …).

In data set [2] the target is T2, PUF4 RNA-binding domain (Saccharomyces cerevisiae, UniProt P25339 537-888).
T2 sequence: T1 sequence
As to the kind of experiment: Mg; RNA-MaP; 20 mM Na-HEPES pH 7.4, 30 mM KOAc, 0.75 mM MgCl2, 0.1% Tween-20, 5% glycerol, 0.1 mg/mL BSA, 2 mM DTT; 25 C; 0.0125-409.6 nM protein. The following applies: tags: N-His6-TEV cleaved; C-SNAP kept, Cy3B-labelled; label: tethered on chip by stalled RNA polymerase.

Data set [3] addresses T3, PUF4 RNA-binding domain (Pumilio homology domain) (Saccharomyces cerevisiae, UniProt P25339 537-888).
T3 sequence: T1 sequence
As to the kind of experiment: RNA-MaP; ddG 1.467; RNA-MaP: 20 mM Na-HEPES pH 7.4, 0.1% Tween-20, 5% glycerol, 0.1 mg/mL BSA, 2 mM DTT, low salt 0.75 mM MgCl2 + 30 mM KOAc (model data; high salt 2 mM MgCl2 + 100 mM KOAc), 25 C. The following applies: protein: recombinant; tags: C-terminal SNAP tag, Cy3B-labeled; N-terminal His tag removed with TEV; label: array RNA; single-stranded.

The target of data set [4] is T3, PUF4 RNA-binding domain (Pumilio …). Kind of data set: RNA-MaP; ddG 1.641; RNA-MaP: 20 mM Na-HEPES pH 7.4, 0.1% Tween-20, 5% glycerol, 0.1 mg/mL BSA, 2 mM DTT, low salt 0.75 mM MgCl2 + 30 mM KOAc (model data; high salt 2 mM MgCl2 + 100 mM KOAc), 25 C. To be noted: protein: recombinant; tags: C-terminal SNAP tag, Cy3B-labeled; N-terminal His tag removed with TEV; label: array RNA; single-stranded.

The target is the same in data set [5]. Kind of data set: RNA-MaP; ddG 3.166; RNA-MaP: 20 mM Na-HEPES pH 7.4, 0.1% Tween-20, 5% glycerol, 0.1 mg/mL BSA, 2 mM DTT, low salt 0.75 mM MgCl2 + 30 mM KOAc (model data; high salt 2 mM MgCl2 + 100 mM KOAc), 25 C. To be noted: protein: recombinant; tags: C-terminal SNAP tag, Cy3B-labeled; N-terminal His tag removed with TEV; label: array RNA; single-stranded.

For data set [6] the target is unchanged. Kind of data set: RNA-MaP; ddG 0.613; RNA-MaP: 20 mM Na-HEPES pH 7.4, 0.1% Tween-20, 5% glycerol, 0.1 mg/mL BSA, 2 mM DTT, low salt 0.75 mM MgCl2 + 30 mM KOAc (model data; high salt 2 mM MgCl2 + 100 mM KOAc), 25 C. To be noted: protein: recombinant; tags: C-terminal SNAP tag, Cy3B-labeled; N-terminal His tag removed with TEV; label: array RNA; single-stranded.

For data set [7] the target is unchanged. As to the kind of experiment: EMSA (active-fraction titration); high salt: 2 mM MgCl2, 100 mM KOAc; 69% active protein; RNA-MaP: 20 mM Na-HEPES pH 7.4, 0.1% Tween-20, 5% glycerol, 0.1 mg/mL BSA, 2 mM DTT, low salt 0.75 mM MgCl2 + 30 mM KOAc (model data; high salt 2 mM MgCl2 + 100 mM KOAc), 25 C. To be noted: protein: recombinant; tags: C-terminal SNAP tag, Cy3B-labeled; N-terminal His tag removed with TEV; label: 32P (trace) plus unlabeled; single-stranded.

Data set [8] has the same target. As to the kind of experiment: RNA-MaP; ddG 1.591; RNA-MaP: 20 mM Na-HEPES pH 7.4, 0.1% Tween-20, 5% glycerol, 0.1 mg/mL BSA, 2 mM DTT, low salt 0.75 mM MgCl2 + 30 mM KOAc (model data; high salt 2 mM MgCl2 + 100 mM KOAc), 25 C. To be noted: protein: recombinant; tags: C-terminal SNAP tag, Cy3B-labeled; N-terminal His tag removed with TEV; label: array RNA; single-stranded.

Data set [9] shares this target. As to the kind of experiment: RNA-MaP; ddG 3.526; RNA-MaP: 20 mM Na-HEPES pH 7.4, 0.1% Tween-20, 5% glycerol, 0.1 mg/mL BSA, 2 mM DTT, low salt 0.75 mM MgCl2 + 30 mM KOAc (model data; high salt 2 mM MgCl2 + 100 mM KOAc), 25 C. To be noted: protein: recombinant; tags: C-terminal SNAP tag, Cy3B-labeled; N-terminal His tag removed with TEV; label: array RNA; single-stranded.

The target is the same in data set [10]. Kind of data set: RNA-MaP; ddG 0.390; RNA-MaP: 20 mM Na-HEPES pH 7.4, 0.1% Tween-20, 5% glycerol, 0.1 mg/mL BSA, 2 mM DTT, low salt 0.75 mM MgCl2 + 30 mM KOAc (model data; high salt 2 mM MgCl2 + 100 mM KOAc), 25 C. To be noted: protein: recombinant; tags: C-terminal SNAP tag, Cy3B-labeled; N-terminal His tag removed with TEV; label: array RNA; single-stranded.

Data set [11] shares this target. As to the kind of experiment: RNA-MaP; ddG 2.995; RNA-MaP: 20 mM Na-HEPES pH 7.4, 0.1% Tween-20, 5% glycerol, 0.1 mg/mL BSA, 2 mM DTT, low salt 0.75 mM MgCl2 + 30 mM KOAc (model data; high salt 2 mM MgCl2 + 100 mM KOAc), 25 C. The following applies: protein: recombinant; tags: C-terminal SNAP tag, Cy3B-labeled; N-terminal His tag removed with TEV; label: array RNA; single-stranded.

Data set [12] shares this target. Kind of data set: RNA-MaP; ddG 1.663; RNA-MaP: 20 mM Na-HEPES pH 7.4, 0.1% Tween-20, 5% glycerol, 0.1 mg/mL BSA, 2 mM DTT, low salt 0.75 mM MgCl2 + 30 mM KOAc (model data; high salt 2 mM MgCl2 + 100 mM KOAc), 25 C. The following applies: protein: recombinant; tags: C-terminal SNAP tag, Cy3B-labeled; N-terminal His tag removed with TEV; label: array RNA; single-stranded.

Data set [13] shares this target. Kind of data set: RNA-MaP; ddG 1.827; RNA-MaP: 20 mM Na-HEPES pH 7.4, 0.1% Tween-20, 5% glycerol, 0.1 mg/mL BSA, 2 mM DTT, low salt 0.75 mM MgCl2 + 30 mM KOAc (model data; high salt 2 mM MgCl2 + 100 mM KOAc), 25 C. The following applies: protein: recombinant; tags: C-terminal SNAP tag, Cy3B-labeled; N-terminal His tag removed with TEV; label: array RNA; single-stranded.

The target is the same in data set [14]. As to the kind of experiment: RNA-MaP; ddG 1.315; RNA-MaP: 20 mM Na-HEPES pH 7.4, 0.1% Tween-20, 5% glycerol, 0.1 mg/mL BSA, 2 mM DTT, low salt 0.75 mM MgCl2 + 30 mM KOAc (model data; high salt 2 mM MgCl2 + 100 mM KOAc), 25 C. To be noted: protein: recombinant; tags: C-terminal SNAP tag, Cy3B-labeled; N-terminal His tag removed with TEV; label: array RNA; single-stranded.

The target is the same in data set [15]. Kind of data set: RNA-MaP; ddG 0.961; RNA-MaP: 20 mM Na-HEPES pH 7.4, 0.1% Tween-20, 5% glycerol, 0.1 mg/mL BSA, 2 mM DTT, low salt 0.75 mM MgCl2 + 30 mM KOAc (model data; high salt 2 mM MgCl2 + 100 mM KOAc), 25 C. The following applies: protein: recombinant; tags: C-terminal SNAP tag, Cy3B-labeled; N-terminal His tag removed with TEV; label: array RNA; single-stranded.

A value given as a limit tells only on which side of the number the result lay.

With UGUAUAUUAU in S1a scaffold, in data set [1], the Kd is 0.00088 µM.

With UGUAUCGCAC in S1b scaffold, the Kd in [1] was over 2.4 µM.

B1: Ia_S2_P5E.1_K5.1_C5.1_H5.1_A5.1_[T5C]_F5.1_T5.1 (ssRNA)
RNA: UUUGAUUAAUAUGAUAUCGUUCUUUCUUGUACUAUUAUUCUUUCUCGAUAUCAUAUUAAUCUUU
On to B1, for which the Kd in data set [2] was found to be 0.00148 µM.

As for ACAAACUGCAUAUUUACAAAC (ssRNA) [Ib_S3_P4E.1_K4.1_C4.1_H4.1_[T3C]_A4.1_F4.1_[A9T]_T4.1], the Kd in [2] stood at 0.839 µM.

Molecule ACAAACGGUAUAUAAACAAAC (ssRNA) [Ib_S3_P4E.1_K4.1_C4.1_H4.1_[T1G]_A4.1_F4.1_[T8A]_T4.1] showed a Kd in [2] of 1.98 µM.

Take UCUCUUUGUAUUUAUCUCUU (ssRNA) [S1a K3.1 A6T]: the Kd in data set [3] was -10.2 ± 0.227 kcal/mol (dG=RTlnKd).

For UCUCUUUGUAUCUAUCUCUU (ssRNA) [S1a K3.1 A6C], the Kd in data set [4] is -9.98 ± 0.415 kcal/mol (dG=RTlnKd).

As for UCUCUUUAUAUAUAUCUCUU (ssRNA) [S1a K3.1 G2A], in data set [5], the Kd was -8.45 ± 0.403 kcal/mol (dG=RTlnKd).

For the molecule UCUCUUUGUAUAUCAUCUCUU (ssRNA) [S1a K4.1 T8C], the Kd in data set [6] was -11 ± 0.259 kcal/mol (dG=RTlnKd).

For AUGUGUAUAUUAGU (ssRNA) [consensus RNA 14-mer], the binding result in data set [7] is listed as “binds”.

In data set [2], ACAAACACUAUAUUAACAAAC (ssRNA) [Ib_S3_P4E.1_K4.1_C4.1_H4.1_[T1A]_[G2C]_A4.1_F4.1_T4.1] came in with a Kd of over 2.3 µM.

In the case of ACAAACCGUAUAUUCACAAAC (ssRNA) [Ib_S3_P4E.1_K4.1_C4.1_H4.1_[T1C]_A4.1_F4.1_[A9C]_T4.1], the Kd in [2] was over 2.3 µM.

ACAAACAGUAUAUAAACAAAC (ssRNA) [Ib_S3_P4E.1_K4.1_C4.1_H4.1_[T1A]_A4.1_F4.1_[T8A]_T4.1] came in with a Kd in data set [2] of over 2.3 µM.

UCUCUUUGUAUACAUCUCUU (ssRNA) [S1a K3.1 T7C]: the Kd in data set [8] is -10 ± 0.544 kcal/mol (dG=RTlnKd).

For the molecule ACAAACAGUAUAUCAACAAAC (ssRNA) [Ib_S3_P4E.1_K4.1_C4.1_H4.1_[T1A]_A4.1_F4.1_[T8C]_T4.1], in data set [2], the Kd was over 2.3 µM.

ACAAACUCUAUAUUCACAAAC (ssRNA) [Ib_S3_P4E.1_K4.1_C4.1_H4.1_[G2C]_A4.1_F4.1_[A9C]_T4.1] showed a Kd in data set [2] of over 2.3 µM.

As for ACAAACUGCAUAUUCACAAAC (ssRNA) [Ib_S3_P4E.1_K4.1_C4.1_H4.1_[T3C]_A4.1_F4.1_[A9C]_T4.1], the Kd in data set [2] was over 2.3 µM.

As to ACAAACUAUAUAUUCACAAAC (ssRNA) [Ib_S3_P4E.1_K4.1_C4.1_H4.1_[G2A]_A4.1_F4.1_[A9C]_T4.1], the Kd in data set [2] worked out at 1.48 µM.

Take ACAAACGGUAUAUGAACAAAC (ssRNA) [Ib_S3_P4E.1_K4.1_C4.1_H4.1_[T1G]_A4.1_F4.1_[T8G]_T4.1]: the Kd in data set [2] is over 2.3 µM.

On to UCUCUUUGUCUAUAUCUCUU (ssRNA) [S1a K3.1 A4C], for which, in data set [9], the Kd is -8.09 ± 0.737 kcal/mol (dG=RTlnKd).

For the molecule UCUCUUUGUACAUAUCUCUU (ssRNA) [S1a K3.1 T5C], in [10], the Kd was -11.2 ± 0.37 kcal/mol (dG=RTlnKd).

As for ACAAACUCUAUAUCAACAAAC (ssRNA) [Ib_S3_P4E.1_K4.1_C4.1_H4.1_[G2C]_A4.1_F4.1_[T8C]_T4.1], the Kd in data set [2] is over 2.3 µM.

On to UCUCUUUGUUUAUAUCUCUU (ssRNA) [S1a K3.1 A4T], for which the Kd in data set [11] was -8.62 ± 0.651 kcal/mol (dG=RTlnKd).

UCUCUUUGUAUAAAUCUCUU (ssRNA) [S1a K3.1 T7A]: the Kd in data set [12] was -9.96 ± 0.7 kcal/mol (dG=RTlnKd).

As to UCUCUUUGUAUGUAUCUCUU (ssRNA) [S1a K3.1 A6G], in data set [13], the Kd is -9.79 ± 0.309 kcal/mol (dG=RTlnKd).

For UCUCUUUGUAAAUAUCUCUU (ssRNA) [S1a K3.1 T5A], the Kd in data set [14] is -10.3 ± 0.252 kcal/mol (dG=RTlnKd).

In turn, ACAAACUUUAUAUUCACAAAC (ssRNA) [Ib_S3_P4E.1_K4.1_C4.1_H4.1_[G2T]_A4.1_F4.1_[A9C]_T4.1] had a Kd in [2] of over 2.3 µM.

In the case of UCUCUUUGUAUAUGAUCUCUU (ssRNA) [S1a K4.1 T8G], in data set [15], the Kd is -10.7 ± 0.299 kcal/mol (dG=RTlnKd).
